In PMC9142594:

What was measured:
Assay in all cases: SPR; Biacore T200; His-tagged histones immobilised on sensor chip NTA; AGEs at 6.25, 12.5, 25, 50 and 100 µg/ml, single-cycle kinetics; 10 mM HEPES, 150 mM NaCl, 0.05% Tween-20; 25 °C; 30 µl/min
[1] = target: His-tagged human histone H2A (human) (UniProt P04908)
[2] = target: His-tagged human histone H3 (human) (UniProt P68431)
[3] = target: His-tagged human histone H2B (human) (UniProt P06899)

Kd [1]: 85.5 nM
Kd [2]: 96.5 nM
Kd [3]: 67.2 nM
Substance: advanced glycation end products (AGEs): bovine serum albumin modified with dehydroascorbic acid (DHA) (from UniProt P02769 25-607) (ligand)
